Test: yeast display, Sf9 membrane polyspecificity reagent, FACS + sequencing; frameworks hold sequencing errors
Summary of the method: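 Nanobodies came from a synthetic yeast display library in Saccharomyces cerevisiae BJ5465, induced with galactose for 36–48 hours and stained for 1 hour at 4 °C with 10% biotinylated, detergent-solubilized Sf9 membrane reagent. Cells were enriched on streptavidin microbeads and then FACS-sorted, with low and high (top ~1%) gates set on anti-HA fluorescence for expression and streptavidin fluorescence for reagent binding. Each polyreactivity label reflects the gate a clone came from. Genes were amplified by colony PCR, sequenced by MiSeq 2 × 250 and filtered by CDR length.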

| Sequence | polyreactivity (PSR sort gate) |
| --- | --- |
| QDQLVESGGGLVQAGGSLRLSCAATGFTFYSYAMGWYRQAPGKERELVAGISRSGGSTYYADSVKGRFTISRDNGKNTVYLQMKSLKPVDTAVYYCNVGLRKKIQNSKYDYWGQGTQVTVSS | high polyreactivity |
| QDQLVESGGGLVQAGGSLRLSCAATGSTFPSNAMGWYRQAPGKEREFVATIRFSGGSTYYADSVKGRFTISRVNAKNTVDLQMNSLKPEDTAVYYCAARFYSSAYWYDYWGQGTQVTVSS | high polyreactivity |
| QDQLVESGGGLVQAGGSLRLSCAATGSTYYGYVMGWYRKAPGKETELVAAINLRGDRTYYADSVKGRFTISRDNAKNTVYLQMNSLKPEESSVYYCAARVMFYNSIKRYSWGQGTQVTGSS | high polyreactivity |
| QDQLVESGGGLVQAGGSLRLSCAAYGSTSYTNAMGWYRQAPGKERELVAGITRSGDSTYYADSVKGRFTISRDTAKNTVYLQMKSLKPEDTAVYYCAADIGDYWLGYYTGYYYLGQGTQVTVSS | high polyreactivity |
| QDQLVESGGGLVQAGGSLRLSCADSGITFSVYAMGWYRQAPGKERELVAAISWNGGRTYYADSVKGRFTISRDNAKNTVYLQMNSLKPEDTAVYYCAAQPWIFSSRLVWTRGYGYWGQGTQVTVSS | high polyreactivity |
| QDQLVESGGGLVQAGGSLRLSCADSGSNFKYNAMGWYRPAPGKERELVAAISTRGSTTNYADSVKGRFTISRDNAKNTVYLQMNSLKPEDTAVYDCNKYANRRDRTRGADYDYWGQGTQVTVSS | high polyreactivity |
| QDQLVESGGGLVQAGGSLRLSCASSGSIFSYNAMGWYRQAPGKEMELVAAISRGGSTYYADSVKGRFTISRDNAKNTVYLQMNSLKPDDTAVYYCAAYVYQLSYPAFEEGYWGQGTQVTVSS | low polyreactivity |
| QDQLVESGGGLVQAGGSLRLSCASSGSTFYYKAMGWSRQEPGKERELVARISRSGGSTYADSVKGRFTISRDNAKYTVYLQMNSLKPEDTAVYYCNADAYGTPEFTSYAVRYDYWGQGTQVTVSS | low polyreactivity |
| QDQLVESGGGLVQAGGSLRLSCASYGSTFGANAMGWYRQAHGKARELVATISSGGRTYYADSVKGRFTISRDNAKITVYLQMNSLKPEDTAVYYCNAGADYTYVYISVYVLYDYLGQGTQVTVSS | low polyreactivity |
| QDQLVESGGGLVQAGGSLRLSCDASGSIFKSYAMGWFRQAPGKERELVASITYGGGRTYYADSVKGRFTISRDNAKNTVYLQMNSLKPEDTAVYYCATRLFGRSGMYYLRYDYWGQGTQVTVSS | high polyreactivity |
| QDQLVESGGGLVQAGGSLRLSCDASGSIFSPYAMGWYRQAPGKEREFVAAITYSGGRTYYADSVKGRFTISRDNPKNTVYFQMNSLKPEDTAVYYCAATYSSYDHYWFVYWGQATQVTVSS | low polyreactivity |
| QDQLVESGGGLVQAGGSLRLSFAASGRTFDRNTMGWYRQAPGKERELVAAISSSGGSTYYADSVKGRFTISRDNAKNTVYLEMNSLIPEDTAVYYCAVLSRQYFRYGYDYCGQGTQVTVSS | high polyreactivity |
| QDQLVESGGGLVQAGGSLRLSGAASGRTFLGYAMGCYRQAPGKERALVAAITWRGGITYYADSVKGRFTISRDNAKNTVYLQMNSLKPEDTAVYYCAARKVGNRYTYYWGQGTQVTVSS | high polyreactivity |
| QDQLVESGGGLVQAGGSLRLSSAASGSTFDSNAMAWYRQAPGKERELVAAISSSGGRTSYADSVKGRFTISRDNAKNTVYLQMNSLKPEDTAVYYCADRFKSVDYVQYYYWGQGTQVTVSS | low polyreactivity |
| QDQLVESGGGLVQAGGSLRLTCAASGRTFTHYAMGWYRQAPVKERELVAAISRSGGTTYYADSVKGRFTISLDNAKNTVYLQMNSRKPEDTAVYYCAARWWYRYNYDYWGQGTHVTVSS | high polyreactivity |
| QDQLVESGGGLVQAGGSLRLTCAASGSIFGWYAMGWYRQAPGKEMELFAAITNSGGSTYYADSVKGRFTISRDNAKKTVYIQMNSLKPEETAVYYCAAESWIRRWYGGGKKYDYWGQGTQVTVSS | high polyreactivity |
| QDQLVESGGGLVQAGGSLRLTCAASGSTFTTNVMGWYRQAPGKERDLVAAISWSSGSTYYADSVKGRFTISRDNAKNTVYLQMKSLKPEDTAVYYCAARLVIFYPYSRYYYWGQGTHVTVSS | high polyreactivity |

Reference: the nanobody polyreactivity screen of Harvey et al. (2022)
